According to patent publication US7371553:
Read-outs that look alike come from different tables or passages of the source.

T1: succinyl-AAPF-p-nitroanilide
T1 sequence: AAPF

T2: suc-AAPA-pNA
T2 sequence: AAPA

T3: suc-AAPR-pNA
T3 sequence: AAPR

T4: suc-AAPE-pNA
T4 sequence: AAPE

T5: suc-AAPE-pNA
T5 chain: AAPE

T6: suc-AAPR-pNA
T6 chain: AAPR

T7: suc-AAPA-pNA
T7 chain: AAPA

T8: succinyl-AAPF-p-nitroanilide
T8 chain: AAPF


Experiments:
[1] = system: T1, succinyl-AAPF-p-nitroanilide
suc-AAPA-pNA [2] = system: T2, suc-AAPA-pNA
suc-AAPR-pNA [3] = system: T3, suc-AAPR-pNA
suc-AAPE-pNA [4] = system: T4, suc-AAPE-pNA
suc-AAPE-pNA [5] = molecular target: T5, suc-AAPE-pNA
suc-AAPR-pNA [6] = molecular target: T6, suc-AAPR-pNA
suc-AAPA-pNA [7] = molecular target: T7, suc-AAPA-pNA
[8] = molecular target: T8, succinyl-AAPF-p-nitroanilide

| Molecule | KM [1] | other results |
| --- | --- | --- |
| SBL S166C-S-CH2C6H5 | 1170 µM | kcat/KM [1]: 20000 M⁻¹ s⁻¹; KM (suc-AAPA-pNA [2]): 800 µM; kcat/KM (suc-AAPA-pNA [2]): 9000 M⁻¹ s⁻¹ |
| SBL L217C-a of Example 2 (aminoethyl side chain) | 640 µM |  |
| SBL N62C-d of Example 2 (2,2-bis(aminomethyl)-3-aminopropyl side chain) | 1170 µM |  |
| SBL S156C-b of Example 1 (4-carboxybutyl side chain) | 1080 µM |  |
| SBL L217C-d of Example 2 (2,2-bis(aminomethyl)-3-aminopropyl side chain) | 2900 µM |  |
| SBL S166C-S-CH2CH2C(CH3)(COO-)2 | 2260 µM | kcat/KM [1]: 30000 M⁻¹ s⁻¹; KM (suc-AAPR-pNA [3]): 5300 µM; kcat/KM (suc-AAPR-pNA [3]): 80 M⁻¹ s⁻¹; ΔΔG‡T = RT ln[(kcat/KM)WT/(kcat/KM)CMM] (suc-AAPR-pNA [3]): S166C-S-1-0.76 |
| SBL S166C-S-CH2CH2NH3+ | 680 µM | kcat/KM [1]: 74000 M⁻¹ s⁻¹; KM (suc-AAPE-pNA [4]): 1900 µM; kcat/KM (suc-AAPE-pNA [4]): 7600 M⁻¹ s⁻¹; kcat/KM substrate screen (FIG. 10) (suc-AAPR-pNA [3]): the substrate screen (FIG. 10) shows that suc-AAPA-pNA and suc-AAPR-pNA are poorer substrates; kcat/KM substrate screen (FIG. 10) (suc-AAPA-pNA [2]): the substrate screen (FIG. 10) shows that suc-AAPA-pNA and suc-AAPR-pNA are poorer substrates |
| SBL N62C-e of Example 1 (3,3,4-tricarboxybutyl side chain) | 1460 µM |  |
| SBL L217C-e of Example 1 (3,3,4-tricarboxybutyl side chain) | 1480 µM |  |
| SBL N62C-a of Example 2 (aminoethyl side chain) | 1000 µM |  |
| SBL N62C-S-benzyl | KM 0.34±0.03 mM |  |
| SBL S166C (unmodified cysteine mutant, R = H) | 500 µM |  |
| SBL L217C-d of Example 1 (3,3-dicarboxybutyl side chain) | 1650 µM |  |
| SBL S166C-d of Example 2 (2,2-bis(aminomethyl)-3-aminopropyl side chain) | 1160 µM |  |
| SBL S166C-c of Example 2 (5,5-bis(aminomethyl)-3-oxo-hexyl side chain) | 1270 µM |  |
| SBL L217C-c of Example 1 (3,5-dicarboxybenzyl side chain) | 810 µM |  |
| SBL N62C-b of Example 2 (2-(trimethylammonium)ethyl side chain) | 860 µM |  |
| SBL S156C-c of Example 2 (5,5-bis(aminomethyl)-3-oxo-hexyl side chain) | 760 µM |  |
| SBL L217C-c of Example 2 (5,5-bis(aminomethyl)-3-oxo-hexyl side chain) | 2940 µM |  |
| SBL S156C-a of Example 2 (aminoethyl side chain) | 730 µM |  |
| SBL S156C-S-benzyl | KM 0.59±0.05 mM |  |
| SBL S166C-S-CH2CH2SO3- | 1340 µM | kcat/KM [1]: 19000 M⁻¹ s⁻¹; KM (suc-AAPR-pNA [3]): 3400 µM; kcat/KM (suc-AAPR-pNA [3]): 50 M⁻¹ s⁻¹; ΔΔG‡T = RT ln[(kcat/KM)WT/(kcat/KM)CMM] (suc-AAPR-pNA [3]): S166C-S-b -0.49 |
| SBL S166C-S-ethyl | KM0.76±0.08 mM |  |
| SBL S156C-b of Example 2 (2-(trimethylammonium)ethyl side chain) | 740 µM |  |
| SBL N62C-S-ethyl | KM 0.55±0.04 mM |  |

| Molecule | KM [1] | other results |
| --- | --- | --- |
| SBL S166C-S-CH2C6H4-3,5-(COO-)2 | 1600 µM | kcat/KM [1]: 29000 M⁻¹ s⁻¹; KM (suc-AAPR-pNA [3]): 5500 µM; kcat/KM (suc-AAPR-pNA [3]): 120 M⁻¹ s⁻¹; ΔΔG‡T = RT ln[(kcat/KM)WT/(kcat/KM)CMM] (suc-AAPR-pNA [3]): S166C-S-d -1.00 |
| SBL S156C-c of Example 1 (3,5-dicarboxybenzyl side chain) | 1390 µM |  |
| SBL L217C-b of Example 1 (4-carboxybutyl side chain) | 1030 µM |  |
| SBL N62C-a of Example 1 (sulfonatoethyl side chain) | 930 µM |  |
| SBL S166C-S-CH2-c-C6H11 | 700 µM | kcat/KM [1]: 6900 M⁻¹ s⁻¹; KM (suc-AAPA-pNA [2]): 1900 µM; kcat/KM (suc-AAPA-pNA [2]): 14800 M⁻¹ s⁻¹ |
| SBL N62C-c of Example 2 (5,5-bis(aminomethyl)-3-oxo-hexyl side chain) | 1060 µM |  |
| SBL S156C-d of Example 1 (3,3-dicarboxybutyl side chain) | 1670 µM |  |
| SBL S166C-(CH2)2NMe3+ | 1420 µM |  |
| SBL N62C-d of Example 1 (3,3-dicarboxybutyl side chain) | 1470 µM |  |
| SBL S156C-e of Example 1 (3,3,4-tricarboxybutyl side chain) | 1870 µM |  |
| SBL S166C-S-CH2CH2C(COO-)3 | 2460 µM | kcat/KM [1]: 31000 M⁻¹ s⁻¹; KM (suc-AAPR-pNA [3]): 5200 µM; kcat/KM (suc-AAPR-pNA [3]): 200 M⁻¹ s⁻¹; ΔΔG‡T = RT ln[(kcat/KM)WT/(kcat/KM)CMM] (suc-AAPR-pNA [3]): S166C-S-j -1.31 |
| SBL L217C-b of Example 2 (2-(trimethylammonium)ethyl side chain) | 690 µM |  |
| SBL S166C-S-CH2(CH2)2CH2COO- | 1520 µM | kcat/KM [1]: 31000 M⁻¹ s⁻¹; KM (suc-AAPR-pNA [3]): 8200 µM; kcat/KM (suc-AAPR-pNA [3]): 41 M⁻¹ s⁻¹; ΔΔG‡T = RT ln[(kcat/KM)WT/(kcat/KM)CMM] (suc-AAPR-pNA [3]): S166C-S-h -0.37 |
| SBL S156C-d of Example 2 (2,2-bis(aminomethyl)-3-aminopropyl side chain) | 810 µM |  |
| SBL S156C-a of Example 1 (sulfonatoethyl side chain) | 1200 µM |  |
| SBL L217C (unmodified cysteine mutant, R = H) | 800 µM |  |
| SBL S156C (unmodified cysteine mutant, R = H) | 850 µM |  |
| SBL L217C-a of Example 1 (sulfonatoethyl side chain) | 1800 µM |  |
| SBL N62C-b of Example 1 (4-carboxybutyl side chain) | 1010 µM |  |
| SBL N62C (unmodified cysteine mutant, R = H) | 1900 µM |  |
| SBL N62C-c of Example 1 (3,5-dicarboxybenzyl side chain) | 1000 µM |  |
| SBL S166C-S-CH2(CH2)8CH3 | 1090 µM | kcat/KM [1]: 75000 M⁻¹ s⁻¹; KM (suc-AAPA-pNA [2]): 1900 µM; kcat/KM (suc-AAPA-pNA [2]): 3600 M⁻¹ s⁻¹ |
| SBL N62C-S-n-pentyl | KM 0.75±0.05 mM |  |
| SBL L217C-S-n-pentyl | KM 0.52±0.05 mM |  |
| subtilisin Bacillus lentus, wild type (protein) AQSVPWGISRVQAPAAHNRGLTGSGVKVAVLDTGISTHPDLNIRGGASFVPGEPSTQDGNGHGTHVAGTIAALNNSIGVLGVAPSAELYAVKVLGASGSGSVSSIAQGLEWAGNNGMHVANLSLGSPSPSATLEQAVNSATSRGVLVVAASGNSGAGSISYPARYANAMAVGATDQNNNRASFSQYGAGLDIVAPGVNVQSTYPGSTYASLNGTSMATPHVAGAAALVKQKNPSWSNVQIRNHLKNTATSLGSTNLYGSGLVNAEAATR |  | KM (suc-AAPE-pNA [5]): 4400 µM; kcat/KM (suc-AAPE-pNA [5]): 400 M⁻¹ s⁻¹; KM (suc-AAPR-pNA [6]): 7200 µM; kcat/KM (suc-AAPR-pNA [6]): 22 M⁻¹ s⁻¹; KM (suc-AAPA-pNA [7]): 2000 µM; kcat/KM (suc-AAPA-pNA [7]): 8800 M⁻¹ s⁻¹; KM [8]: 730 µM; kcat/KM [8]: 209000 M⁻¹ s⁻¹ |
